Data from the supplement of paper PMC7877785.
± gives the uncertainty stated by the source.

Experiment: self-splicing fitness, log relative to wild type (ln ratio); higher = more splicing; Tetrahymena group I intron in knt gene, E. coli kanamycin selection, DiMSum; sequences stand for … in CUCUCU…GGAGGGAAAAGUUAUCAGGCAUGCACCUGGUAGCUAGUCUUUAAACCAAUAGAUUGCAUCGGUUUAAAAGGCAAGACCGUCAAAUUGCGGGAAAGGGGUCAACAGCCGUUCAGUACCAAGUCUCAGGGGAAACUUUGAGAUGGCCUUGCAAAGGGUAUGGUAAUAAGCUGACGGACAUGGUCCUAACCACGCAGCCAAGUCCUAAGUCAACAGAUCUUCUGUUGAUAUGGAUGCAGUUCACAGACUAAAUGUCGGUCGGGGAAGAUGUAUUCUUCUCAUAAGAUAUAGUCGGACCUCUCCUUAAUGGGAGCUAGCGGAUGAAGUGAUGCAACACUGGAGCCGCUGGGAACUAAUUUGUAUGCGAAAGUAUAUUGAUUAGUUUUGGAGUACUCGUGGUCG
How it was run: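 DiMSum derived fitness as the error-weighted combination of fold changes across replicates, kanamycin versus no kanamycin, normalised to wild type. E. coli BL21(DE3) held the library, which randomised all eight P1ex-region intron nucleotides within the knt kanamycin-resistance gene on pET-22b(+). Six replicate transformations grew overnight at 37°C or 30°C on LB agar with or without 25 μg/mL kanamycin, also containing 100 μg/mL carbenicillin, 50 μM IPTG and 0.2% rhamnose, and pooled colonies were amplicon-sequenced on an Illumina HiSeq 2500.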

Row | Sequence | self-splicing fitness (ln) (30 °C) | self-splicing fitness (ln) (37 °C)
1 | CCUAAGCAAUAUUACGGUCG | -0.889 ± 0.065 | -0.252 ± 0.086
2 | UUAGAGCAAUAUUACGAUCA | -1.52 ± 0.16 | -0.808 ± 0.17
3 | AGGUAGCAAUAUUACGUUUC | -3.528 ± 0.026 | -2.18 ± 0.039
4 | UUGUAGCAAUAUUACGACAG | -0.234 ± 0.21 | -0.137 ± 0.25
5 | UCCUAGCAAUAUUACGGGGA | -2.59 ± 0.24 | -1.59 ± 0.21
6 | AACUAGCAAUAUUACGUCUU | 0.0966 ± 0.067 | 0.781 ± 0.083
7 | GAGAAGCAAUAUUACGUUGC | -3.47 ± 0.24 | -3.31 ± 0.31
8 | CCCUAGCAAUAUUACGCGCU | – | -1.78 ± 0.47
9 | AACUAGCAAUAUUACGUUCA | -1.3 ± 0.1 | -0.728 ± 0.12
10 | UCUGAGCAAUAUUACGACCU | – | -2.62 ± 0.31
11 | AGUCAGCAAUAUUACGACGU | 0.702 ± 0.092 | -0.164 ± 0.096
12 | AAACAGCAAUAUUACGCCGG | -2.36 ± 0.12 | -1.67 ± 0.12
13 | UCCGAGCAAUAUUACGAUCG | -3.27 ± 0.27 | -2.51 ± 0.34
14 | GUUAAGCAAUAUUACGCCGC | -3.02 ± 0.21 | -2.03 ± 0.31
15 | CGGCAGCAAUAUUACGUUUC | -3.29 ± 0.17 | -2.36 ± 0.19
16 | GUUGAGCAAUAUUACGGGAU | -3.14 ± 0.15 | -1.96 ± 0.15
17 | GUGUAGCAAUAUUACGUAGA | -3.14 ± 0.25 | -1.8 ± 0.36
18 | AGUUAGCAAUAUUACGCUGA | -3.13 ± 0.3 | -2.05 ± 0.27
19 | ACAUAGCAAUAUUACGUUAU | -4.28 ± 0.29 | -3.07 ± 0.2
20 | UAGGAGCAAUAUUACGCGUC | -2.98 ± 0.28 | -2.22 ± 0.29
21 | UACUAGCAAUAUUACGUAGA | -1.84 ± 0.11 | -1.95 ± 0.16

Row | Sequence | self-splicing fitness (ln) (30 °C) | self-splicing fitness (ln) (37 °C)
22 | UACAAGCAAUAUUACGACUC | -2.6 ± 0.14 | -1.2 ± 0.16
23 | CGCUAGCAAUAUUACGAGGU | -3.83 ± 0.31 | -2.58 ± 0.23
24 | CGGGAGCAAUAUUACGCCCA | -2.28 ± 0.25 | -1.24 ± 0.28
25 | CAGGAGCAAUAUUACGAGGU | -2.48 ± 0.2 | -2.84 ± 0.25
26 | AACGAGCAAUAUUACGAAGA | -3.13 ± 0.33 | -1.82 ± 0.44
27 | GGUAAGCAAUAUUACGAAAG | -3.68 ± 0.47 | –
28 | AUUAAGCAAUAUUACGUACG | -1.15 ± 0.13 | -0.777 ± 0.14
29 | ACGCAGCAAUAUUACGUACU | -1.12 ± 0.077 | -0.434 ± 0.088
30 | AAUCAGCAAUAUUACGGACU | -0.329 ± 0.1 | -0.697 ± 0.099
31 | UUAAAGCAAUAUUACGGCCU | -0.459 ± 0.12 | 0.567 ± 0.16
32 | CUGCAGCAAUAUUACGCCGU | – | -1.3 ± 0.31
33 | CCCAAGCAAUAUUACGUCUU | -3.41 ± 0.11 | -2.25 ± 0.12
34 | AAUUAGCAAUAUUACGGAGG | -3.68 ± 0.39 | -1.87 ± 0.25
35 | GUACAGCAAUAUUACGUUAA | -2.28 ± 0.12 | -1.98 ± 0.15
36 | CCCAAGCAAUAUUACGCCUA | -2.65 ± 0.26 | -2.8 ± 0.31
37 | UUACAGCAAUAUUACGUCGU | -3.81 ± 0.16 | -2.26 ± 0.14
38 | AAAUAGCAAUAUUACGGACG | -0.725 ± 0.069 | -0.343 ± 0.096
39 | AGGAAGCAAUAUUACGGGAG | -2.22 ± 0.19 | -2.95 ± 0.37
40 | AUGCAGCAAUAUUACGGUGA | -0.911 ± 0.093 | -0.872 ± 0.1
41 | UGAGAGCAAUAUUACGAAUU | -3.84 ± 0.16 | -2.79 ± 0.17
42 | GCAUAGCAAUAUUACGGUCC | -1.71 ± 0.098 | -1.48 ± 0.11

Row | Sequence | self-splicing fitness (ln) (30 °C) | self-splicing fitness (ln) (37 °C)
43 | AGGUAGCAAUAUUACGAACA | -0.682 ± 0.019 | -0.342 ± 0.036
44 | CUCGAGCAAUAUUACGGGAA | -3.85 ± 0.35 | -2.42 ± 0.23
45 | UGGUAGCAAUAUUACGCUUU | -1.85 ± 0.12 | -1.46 ± 0.12
46 | UUGCAGCAAUAUUACGUGAU | -3.85 ± 0.2 | -2.06 ± 0.17
47 | AUAUAGCAAUAUUACGGGCG | -1.47 ± 0.17 | -0.59 ± 0.15
48 | UAUGAGCAAUAUUACGAAGA | -2.69 ± 0.44 | -1.81 ± 0.2
49 | UAUAAGCAAUAUUACGUCGG | -0.782 ± 0.076 | -0.0864 ± 0.098
50 | GCGAAGCAAUAUUACGAGCC | -3.17 ± 0.23 | –
51 | CGAAAGCAAUAUUACGCGUG | -1.16 ± 0.068 | 0.12 ± 0.079
52 | AUUUAGCAAUAUUACGCGGU | -2.13 ± 0.29 | -1.87 ± 0.44
53 | GUGUAGCAAUAUUACGACGG | -3.88 ± 0.31 | -0.904 ± 0.15
54 | AGCGAGCAAUAUUACGGUGA | -3.59 ± 0.21 | -2.77 ± 0.15
55 | AAGUAGCAAUAUUACGAAUA | -3.24 ± 0.34 | -2.29 ± 0.23
56 | GGAGAGCAAUAUUACGUCAG | -3.34 ± 0.22 | -1.75 ± 0.21
57 | AGCUAGCAAUAUUACGGUUU | -2.66 ± 0.14 | -1.96 ± 0.14
58 | AAAAAGCAAUAUUACGGGGA | -1.74 ± 0.13 | -1.8 ± 0.13
59 | CUUGAGCAAUAUUACGACGU | -3.62 ± 0.35 | -2.25 ± 0.21
60 | CGACAGCAAUAUUACGCCUA | -2.48 ± 0.19 | -1.01 ± 0.17
61 | GAUGAGCAAUAUUACGAGAU | – | -3.21 ± 0.47
62 | UUAAAGCAAUAUUACGAUUU | -0.89 ± 0.063 | 0.0458 ± 0.099
